Experimental data: patent publication US20200172626A1

Biological target: human 4-1BB expressed on cells (human) (UniProt Q07011)
Test: flow cytometry dot plot (CD8-BV510 against BBK-4-Dylight488) on human CD8+ T cells activated with anti-CD3 for 2 days; antibody at 25 ng/ml, anti-mIgG-Dylight488

Chain of human 4-1BB expressed on cells (human) (Q07011 24-255 limits assumed): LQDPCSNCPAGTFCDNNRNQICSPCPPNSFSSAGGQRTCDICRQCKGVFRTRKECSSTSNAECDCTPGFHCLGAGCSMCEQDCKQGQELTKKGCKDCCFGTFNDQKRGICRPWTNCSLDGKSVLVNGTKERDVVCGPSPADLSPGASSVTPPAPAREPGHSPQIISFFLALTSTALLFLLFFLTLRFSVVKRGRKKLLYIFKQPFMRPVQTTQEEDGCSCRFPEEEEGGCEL

% of 4-1BB-positive CD8 T cells: 1.72%
Substance: BBK-4 murine anti-human 4-1BB antibody
